Values belong to the molecule of their own block, whether it stands above or below them.
Assays:
human XIAP = biological target: T1, human XIAP (Homo sapiens, UniProt P98170); assay: In vitro ubiquitination / self-conjugation reaction with 35S-labeled XIAP; assay type: biochemical; details: 35S-XIAP; FIG. 8, 15B, 16, 17
T1 construct: host or cells: cell-free in vitro transcription-translation; the partner His-UBCH5C was made in E. coli BL21 (pLysS)
Method: ^35S-methionine labeled mutant and wild type DIAP1, or wild type XIAP were generated in an in vitro transcription-translation system (Promega) from diap1-pET14b, diap1^21-4S pET14b and xiap pcDNA3.1 plasmids. For purification of His-UBCD1 and His-UBCH5C, ubcD1-pET14b and ubcH5C-pT7-7 were expressed in BL21 (pLysS) and purified on a Ni-column according to the manufacturer's protocol (Novagen). In vitro ubiquitination assays were carried out in a total volume of 12.5 μl and contained: ^35S-methionine labeled wild type or mutant DIAP1 or Wild type XIAP (approximately 10,000 cpm), and 250ng E1 (made in baculovirus; vector is the kind gift of Dr. Kazuhiro Iwai, University of Osaka, Osaka, Japan). Unless otherwise stated, 1.2 μg His-UBCD1 or His-UBCH5C was used in each reaction. Reaction mixture contained also 40 mM Tris-HCl, pH 7.6, 5 mM MgCl2, 1 mM DTT, 5 μg ubiquitin, 100 ng Ubiquitin-aldehyde, 2 mM ATPγS [Adenosine 5′-O-(3-thiotriphosphate)]. Reactions were incubated for 50 min at 37° C., and resolved, following addition of a sample buffer on SDS-PAGE (10%). Gels were dried and proteins visualized via Phosphorimaging (Fuji, Japan).

DIAP1 = biological target: T2, DIAP1 (Drosophila melanogaster, UniProt Q24306); assay: In vitro ubiquitination / self-conjugation reaction with 35S-labeled DIAP1; assay type: biochemical; details: 35S-DIAP1 with E1, UBCD1 and ubiquitin; SDS-PAGE; FIG. 13-15A
T2 construct: The full length ORF of diap1 was subcloned into the BamH1 site of pET14b (Novagen); His (N); host or cells: cell-free in vitro transcription-translation (reticulocyte lysate); the partner His-UBCD1 was made in E. coli BL21 (pLysS)
T2 sequence (Q24306 1-438): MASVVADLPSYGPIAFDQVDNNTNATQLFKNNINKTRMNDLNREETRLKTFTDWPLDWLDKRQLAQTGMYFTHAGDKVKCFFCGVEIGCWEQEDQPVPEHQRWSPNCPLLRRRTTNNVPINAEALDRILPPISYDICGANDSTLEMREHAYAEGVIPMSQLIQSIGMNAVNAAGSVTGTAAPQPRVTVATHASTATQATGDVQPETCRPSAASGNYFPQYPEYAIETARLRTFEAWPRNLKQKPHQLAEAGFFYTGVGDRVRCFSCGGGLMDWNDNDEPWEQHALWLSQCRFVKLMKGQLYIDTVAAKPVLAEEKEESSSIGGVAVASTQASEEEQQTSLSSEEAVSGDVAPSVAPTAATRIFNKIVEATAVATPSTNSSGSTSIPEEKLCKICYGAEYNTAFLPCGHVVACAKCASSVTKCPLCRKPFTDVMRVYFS
Method: ^35S-methionine labeled mutant and wild type DIAP1, or wild type XIAP were generated in an in vitro transcription-translation system (Promega) from diap1-pET14b, diap1^21-4S pET14b and xiap pcDNA3.1 plasmids. For purification of His-UBCD1 and His-UBCH5C, ubcD1-pET14b and ubcH5C-pT7-7 were expressed in BL21 (pLysS) and purified on a Ni-column according to the manufacturer's protocol (Novagen). In vitro ubiquitination assays were carried out in a total volume of 12.5 μl and contained: ^35S-methionine labeled wild type or mutant DIAP1 or Wild type XIAP (approximately 10,000 cpm), and 250ng E1 (made in baculovirus; vector is the kind gift of Dr. Kazuhiro Iwai, University of Osaka, Osaka, Japan). […]
In order to determine whether both amino acid consensus sequences described above are essential for IAP degradation, peptides were generated, with amino acid sequences as described in Tables 1, 3 and 5 above, containing one of each amino acid consensus sequence, or both, and their ability to stimulate in vitro IAP ubiquitination was assessed (FIG. 13). ^35S-methionine labeled wild type DIAP1 was incubated with 250 ng E1 and ubiquitin, with or without the addition of the RPR wild type protein, or peptides containing the RHG amino acid consensus sequence of the RPR HID or GRIM proteins, and the reaction products were resolved by SDS-PAGE.

T1 sequence (P98170 whole entry): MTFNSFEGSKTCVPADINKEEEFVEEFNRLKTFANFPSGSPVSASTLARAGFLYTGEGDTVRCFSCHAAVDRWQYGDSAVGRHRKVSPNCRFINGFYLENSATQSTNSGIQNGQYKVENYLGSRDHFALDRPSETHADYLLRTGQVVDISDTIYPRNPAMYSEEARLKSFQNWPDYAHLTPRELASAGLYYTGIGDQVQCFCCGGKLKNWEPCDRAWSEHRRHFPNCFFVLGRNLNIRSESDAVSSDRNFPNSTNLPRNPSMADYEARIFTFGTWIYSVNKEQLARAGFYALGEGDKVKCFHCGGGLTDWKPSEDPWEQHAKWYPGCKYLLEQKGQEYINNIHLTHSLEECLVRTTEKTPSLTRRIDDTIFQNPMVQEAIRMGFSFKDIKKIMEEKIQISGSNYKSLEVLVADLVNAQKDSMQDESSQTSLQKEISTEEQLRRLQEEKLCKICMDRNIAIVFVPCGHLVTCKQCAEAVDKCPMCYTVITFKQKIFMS

- stimulation of XIAP auto-ubiquitination / self-conjugation in vitro (human XIAP): greatest effect
Molecule: AVAFYIPDQATLLR QWRFLATVVL (AVAFYIPDQATLLRQWRFLATVVL; Drosophila melanogaster) [Peptide R15W, Reaper RHG plus Trp-box peptide]

- stimulation of XIAP auto-ubiquitination / self-conjugation in vitro (human XIAP): greatest effect
Molecule: AVPFYLPE QWRFLATVVL (AVPFYLPEQWRFLATVVL; Drosophila melanogaster) [Peptide H9-W, Hid RHG plus Reaper Trp-box peptide]

- stimulation of IAP (DIAP1) self-conjugation / auto-ubiquitination in vitro (DIAP1): resulted in auto-ubiquitination
- stimulation of XIAP auto-ubiquitination / self-conjugation in vitro (human XIAP): strongly stimulated
B1: Reaper: wild type Drosophila IAP inhibitor (IAPi) protein REAPER (RPR) (protein)
chain: MAVAFYIPDQATLLREAEQKEQQILRLRESQWRFLATVVLETLRQYTSCHPKTGRKSGKYRKPSQ

Source: patent publication US7507788B2, “Peptides and methods for cell death regulation” (Rappaport Family Institute for Research in the Medical …, priority 2002, dated 2009)
